Assay results taken from patent publication US20160024208A1 (Regeneron, published 2016).
Numbering of substitutions follows the chain as printed.

B1: H4H362B (antibody, V domains shown)
VH: QVQLVESGAEVKKPGASVKVSCKASGYTFTTYGISWVRQAPGQGLEWMGWISAYNGKTNYAQKFQGRVTMTTDTSTNTAYMELRSLRFDDTAVYYCARDGGTPFYYWGQGTLVTVSS
VL: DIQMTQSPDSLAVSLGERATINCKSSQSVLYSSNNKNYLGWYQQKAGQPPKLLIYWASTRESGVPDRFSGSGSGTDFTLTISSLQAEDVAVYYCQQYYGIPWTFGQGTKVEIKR
B2: H2M799N (antibody, V domains shown)
VH: EVQLVESGGGLVQPGGSLRLSCAASGFTFSIFWMNWVRQAPGKGLEWVAKIKQDGSEKYYVDSMKGRFTISRDNVKNSLYLQMNSLRAEDTAVYYCARGVWGSYRYTSSGLDVWGQGTTVTVSS
VL: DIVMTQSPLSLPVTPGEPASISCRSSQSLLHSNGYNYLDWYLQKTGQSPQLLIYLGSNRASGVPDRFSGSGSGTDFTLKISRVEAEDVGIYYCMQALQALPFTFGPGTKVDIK
notes: Hybridoma-derived
B3: H4H468P (antibody, V domains shown)
VH: QVQLVESGGGVVQPGRSLRLSCTASGFTFSVYGIHWVRQAPGKGLEWVAVIWYDGSNKYYTDSVKGRFTISRDNSKNTLYLQMNSLRAEDTALYYCAREGDLSSSSGSGGYHYVVDVWGQGTTVTVSS
VL: AIQMTQSPSSLSASVGDRVTITCRASQDIRNDLGWYQQKPGNAPKLLIYSTSSLQSGVPSRFSGSGSGTDFTLTISSLQPEDFATYYCLQDYNYPLTFGGGTKVEIK
notes: also called REGN1064
B4: H4H471P (antibody, V domains shown)
VH: QVQLVESGGGLVKPGGSLRLSCAASGVTFSDYYMTWIRQAPGKGLEWVSYISTDGRTIYYADSVKGRFTISRDNAKNSLYLQMNNLRAEDTAVYYCARGVDSDDYEDFYSYYDMDVWGQGTTVTVSS
VL: DIQMTQSPSSLSASVGDRVTITCRASQGISNYLAWFQQKPGKAPKSLIYAASSLQGGVPSRFSGSGSGTDFTLTISSLQPEDFATYYCQQYNSYPLTFGGGTKVEIK

Legend:
[1] = target: T1, N-Term Biotin-Nav1.7 (3-1) peptide, human (human, not fully specified; N-terminal biotin attached via a G4S linker); experiment: ELISA on coated peptide, antibody 1 ug/ml, OD450 grade
T1 construct: ELISA peptide
T1 peptide: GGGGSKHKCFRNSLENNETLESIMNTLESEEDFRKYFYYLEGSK
Method in brief: (§1)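 Peptides coated at 4 μg/mL in PBS, or biotinylated peptides captured at 0.4 μg/mL on avidin (2 μg/mL). Antibodies at 0.1 and 1.0 μg/mL, 1 h at room temperature, detected with HRP anti-mouse or anti-human IgG and TMB at OD450. Scores at 1 μg/ml: <0.2 −; 0.2–1 +; 1–2 ++; 2–4 +++.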

[2] = target: T2, N-Term Biotin Nav1.7 (3-1) peptide, mulatta (mulatta (monkey), not fully specified; N-terminal biotin attached via a G4S linker); experiment: as above
T2 construct: Synthetic peptide; also called Mulatta Nav1.7 3-1 N-term biotin; monkey
T2 peptide: T1 peptide with F10V, R11Q, E15V
Method in brief: as §1

[3] = target: T3, N-Term Biotin Nav1.7 (3-1) peptide, mouse (mouse, not fully specified; N-terminal biotin attached via a G4S linker); experiment: ELISA on coated peptide
T3 construct: Synthetic peptide; also called Mouse Nav1.7 3-1 N-term biotin
T3 peptide: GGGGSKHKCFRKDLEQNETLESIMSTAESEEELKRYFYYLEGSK
Procedure: (§2) Anti-Naᵥ 1.7 antibodies were tested for their ability to bind to the Naᵥ 1.7 peptides. The various peptides were coated overnight onto 96-well Nunc Immunosorp plates at a concentration of 4 μg/mL in PBS, followed by blocking for 1 hour in a suitable blocking agent. For biotinylated peptides, avidin was first coated on Nunc Immunosorp plates at 2 μg/mL in PBS overnight, followed by blocking as described, and the plate was then coated with biotinylated peptides at a concentration of 0.4 μg/mL and incubated for 1 hour at room temperature. Purified anti-Naᵥ 1.7 antibodies were diluted to a final concentration of 0.1 μg/mL and 1.0 μg/mL and added to the wells of the coated microtiter plates followed by incubation for 1 hour at room temperature. Bound antibodies were detected with horseradish peroxidase (HRP) conjugated anti-mouse or anti-human IgG (Jackson Immuno Research Lab, West Grove, Pa.) depending on the antibody species and developed by colorimetric response using tetramethylbenzidine (TMB) substrate (BD Biosciences). Absorbance was read at OD₄₅₀ on a plate reader for 0.1 second.
(§3) Values in Table 11 represent absolute binding ranges (at OD450) to plate-coated peptides for antibodies added at 1 μg/ml as follows: OD450<0.2: −; 0.2<OD450<1: +; 1<OD450<2: ++; 2<OD450<4: +++; NT: Not Tested.

[4] = target: T4, full-length human Nav1.7 fused at its N-terminus to GFP, expressed in HEK293 cells (human, UniProt Q15858 1-1988); experiment: cell-based or functional assay
[5] = target: T3, N-Term Biotin Nav1.7 (3-1) peptide, …; experiment: SPR, captured antibody, peptide analyte
Method in brief: (§4)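 Biacore SPR: antibody captured via Fc on anti-Fc surface, Nav1.7 loop peptides injected as analyte at several concentrations. Double-referenced sensorgrams globally fitted to a 1:1 model; KD = kd/ka, t1/2 = ln2/kd.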

[6] = target: T2, N-Term Biotin Nav1.7 (3-1) peptide, …; experiment: SPR, captured antibody, peptide analyte
Method in brief: as §4

[7] = target: T5, Native Nav1.7 (3-1) peptide, human (human); experiment: SPR, captured antibody, peptide analyte
T5 construct: Synthetic peptide (Celtek), unbiotinylated; also called Human Nav1.7 3-1 native; Nav1.7 3-1 native peptide
T5 peptide: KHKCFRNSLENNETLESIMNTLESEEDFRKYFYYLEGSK
Method in brief: as §4

[8] = target: T4, full-length human Nav1.7 fused at its …; experiment: flow cytometry; % stained hNav1.7-GFP-HEK293 minus parental HEK293
Procedure: The binding of anti-Naᵥ 1.7 human antibodies to full-length Naᵥ 1.7 expressed in HEK293 cells was determined by flow cytometry (FACS). HEK293 cells were stably-transfected with full-length human Nav1.7 fused at its N-terminus to the green fluorescent protein (GFP) to generate cell line hNaᵥ 1.7-GFP-HEK293. Antibody binding to the transfected cells overexpressing Naᵥ 1.7 was compared to binding to the parental HEK293 cell line. To perform the binding experiments, adherent cells were collected using 1 mM EDTA in PBS, washed and re-suspended in cold PBS containing 5% FBS. For each binding experiment, the anti-Naᵥ 1.7 antibody (at concentrations ranging from 1 nM to 13 nM), was added to 250,000 cells in 500 μL of PBS with 5% FBS. After incubation for 20 minutes on ice, the secondary antibody, recognizing either human-Fc and conjugated to cyanine 5 (Cy5) or recognizing mouse-Fc and conjugated to allophyocyanin (APC), was then added to the cell mixture at a final secondary antibody concentration of 1.7 nM. After incubating for 20 minutes on ice, the cells were resuspended in PBS+5% FBS and then sorted and analyzed on a flow cytometer to determine relative binding by the candidate antibodies. For FACS analysis, gating was applied to examine only healthy live cells in the antibody binding experiments, and percentage stained was recorded. Staining of secondary antibodies alone to Naᵥ 1.7-GFP-HEK293 cells gave low background signals (1-2%). Specific binding was measured as the percent binding to Naᵥ 1.7-GFP-HEK293 cells minus percent binding to parental HEK293 cells.

[9] = target: T6, C-term Biotin Nav1.7 (3-1) peptide, human (human, not fully specified; C-terminal biotin attached via a G4S linker); experiment: SPR, captured biotin-peptide, antibody analyte
T6 construct: Synthetic peptide; also called Human Nav1.7 3-1 C-term biotin
T6 peptide: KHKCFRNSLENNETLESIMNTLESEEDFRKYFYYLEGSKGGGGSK

[10] = target: T7, Native Nav1.7 (3-1) peptide, rat (rat); experiment: ELISA on coated peptide
T7 construct: Synthetic peptide; also called Rat Nav1.7 3-1 native
T7 peptide: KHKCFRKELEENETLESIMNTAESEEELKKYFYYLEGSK
Procedure: as §2, §3

[11] = target: T7, Native Nav1.7 (3-1) peptide, rat; experiment: SPR, captured antibody, peptide analyte
Method in brief: as §4

[12] = target: T8, C-Term Biotin Nav1.7 (3-3) peptide, rat (rat, C-terminal biotin attached via a G4S linker); experiment: SPR, captured antibody, peptide analyte
T8 construct: Synthetic peptide; also called Rat Nav1.7 3-3 C-term biotin
T8 peptide: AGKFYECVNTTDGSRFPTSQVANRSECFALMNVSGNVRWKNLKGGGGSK
Method in brief: as §4

[13] = target: T9, C-Term Biotin Nav1.7 (3-3) peptide, mouse (mouse, C-terminal biotin attached via a G4S linker); experiment: SPR, captured antibody, peptide analyte
T9 construct: Synthetic peptide; also called Mouse Nav1.7 3-3 C-term biotin
T9 peptide: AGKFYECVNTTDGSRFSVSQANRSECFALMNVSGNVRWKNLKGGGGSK
Method in brief: as §4

[14] = target: T10, Native Nav1.7 (3-3) peptide, human (human); experiment: SPR, captured antibody, peptide analyte
T10 construct: Synthetic peptide, unbiotinylated; also called Human Nav1.7 3-3 native; Nav1.7 3-3 native peptide
T10 peptide: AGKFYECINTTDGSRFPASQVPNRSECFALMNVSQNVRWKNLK
Method in brief: as §4

[15] = target: T4, full-length human Nav1.7 fused at its …; experiment: flow cytometry on Nav1.7-GFP-HEK293, antibody 3.3 nM
Procedure: The specificity of binding of anti-Naᵥ 1.7 human antibodies to full-length Naᵥ 1.7 expressed in HEK293 cells was determined by peptide competition experiments using flow cytometry.
HEK293 cells stably-transfected with full-length Naᵥ 1.7 fused at its N-terminus to GFP (Naᵥ 1.7-GFP-HEK293) were used for this study. Antibody binding to the transfected cells overexpressing Naᵥ 1.7 was compared to binding in the presence of excess peptide and to binding to the parental HEK293 cell line. To perform the binding experiments, adherent cells were collected using 1 mM EDTA in PBS, washed and re-suspended in cold PBS containing 5% FBS. For each binding experiment the anti-Naᵥ 1.7 antibody at a final concentration of 3.3 nM (in PBS/5% FBS) was added to cells either directly or after incubating for 10 min on ice with a 1000-fold molar excess (3.3 uM final concentration in PBS/5% FBS) of synthetic peptide with sequence corresponding to the loop specificity of the antibody. The antibodies designated as H4H391P, H4H443B, H4H448B, and H1M797N were preincubated as described above with a synthetic peptide corresponding to EC loop 3-1 (amino acid residues 269-338 of SEQ ID NO: 670), whereas the antibodies designated as H4H468P and H1 M852N were preincubated with a synthetic peptide corresponding to EC loop 3-3 (amino acid residues 1333-1382 of SEQ ID NO: 670). The antibody or antibody-peptide mixture was then allowed to incubate with cells for 20 min on ice, followed by addition of 500 uL of cold PBS/5% FBS. Cells were collected by centrifugation, resuspended in 500 uL of cold PBS/5% FBS, and then secondary antibody matched to the antibody isotype (either anti-human-Fc conjugated to Cyanine 5 or anti-mouse-Fc conjugated to allophyococyanin) was added. Binding was detected on the flow cytometry instrument and analyzed as percent binding using the instrument software. For FACS analysis appropriate gating was applied so that only healthy, live cells were counted. Background staining of secondary antibodies alone to Naᵥ 1.7-GFP-HEK293 cells was tested and recorded for all samples, and results ranged between 1-2% binding.

[16] = target: T11, C-term Biotin Nav1.7 (3-3) peptide, human (human, C-terminal biotin attached via a G4S linker); experiment: SPR, captured biotin-peptide, antibody analyte
T11 construct: Synthetic peptide; also called Human Nav1.7 3-3 C-term biotin
T11 peptide: T8 peptide with V8I, T18A, A22P, G35Q

OD450 [1]	OD450 [2]	OD450 [3]	Current blocking (Average % inhibition), IonWorks Quattro, 223 nM antibody [4]	binding result [5]	Kd [6]	t1/2 [6]	Kd [7]	t1/2 [7]	% Binding Nav1.7 [8]	Kd [9]	t1/2 [9]	binding result [12]	Kd [14]	t1/2 [14]	binding result [9]	Kd [16]	t1/2 [16]	also measured	Binder
2 to 4 od	2 to 4 od	< 0.2 od	25.5%	no binding	0.257 nM	36.1 min	0.612 nM	8.6 min	3.7%	0.218 nM	101 min								B1
2 to 4 od	2 to 4 od	< 0.2 od	6%	no binding	4.14 nM	27.4 min	9.93 nM	17.5 min	5.7%	0.815 nM	106 min							OD450 [10]: < 0.2 od; binding result [11]: no binding	B2
									71.8%			no binding	630 nM	0.31 min	no binding	47.2 nM	1.3 min	binding result [13]: no binding; % Binding Nav1.7 (Stable Line) [15]: 89.5%	B3
												no binding	16 nM	17 min	no binding	0.138 nM	743 min		B4
